According to patent US20250289866A1 (published 2025):

Molecular target: T1, NDC80 (NDC80 CT antigen; peptide NDC80-330) peptide on HLA-A*02:01 (human)
T1 peptide: GLNEEIARV
Test: multimer staining

B1: NDC80-330 specific TCR (TCR, V domains shown)
Valpha: EDQVTQSPEALRLQEGESSSLNCSYTVSGLRGLFWYRQDPGKGPEFLFTLYSAGEEKEKERLKATLTKKESFLHITAPKPEDSATYLCAVQAGSSASKIIFGSGTRLSIRP
Vbeta: DAGVTQSPTHLIKTRGQQVTLRCSPKSGHDTVSWYQQALGQGPQFIFQYYEEEERQRGNFPDRFSGHQFPNYSSELNVNALLLGDSALYLCASSLSGGIYEQYFGPGTRLTVT
binding result: recognises
